Laboratory results from paper PMC10385607.

Target: Human ALCAM (28–501)-6xhistidine tag (human) (UniProt Q13740)
Experiment: ELISA; competition with CD6-Fc

Chain of Human ALCAM (28–501)-6xhistidine tag (human) (Q13740 28-501): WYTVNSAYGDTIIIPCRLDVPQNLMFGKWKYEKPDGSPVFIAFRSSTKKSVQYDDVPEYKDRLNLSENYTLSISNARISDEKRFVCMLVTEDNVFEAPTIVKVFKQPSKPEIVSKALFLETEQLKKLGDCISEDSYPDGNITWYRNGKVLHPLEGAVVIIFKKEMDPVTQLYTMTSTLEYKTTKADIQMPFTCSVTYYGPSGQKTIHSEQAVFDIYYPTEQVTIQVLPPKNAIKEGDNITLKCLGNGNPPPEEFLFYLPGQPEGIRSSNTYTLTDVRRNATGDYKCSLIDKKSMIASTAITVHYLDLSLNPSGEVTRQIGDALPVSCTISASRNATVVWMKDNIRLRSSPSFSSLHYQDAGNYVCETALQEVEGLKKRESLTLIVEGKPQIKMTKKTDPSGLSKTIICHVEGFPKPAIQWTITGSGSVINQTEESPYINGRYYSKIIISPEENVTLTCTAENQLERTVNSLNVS

mini-ab V2D7 (from UniProt P03069)
IC50: 5.63 nM
